Laboratory results from patent publication US20020127652A1 (published 2002).

T1: human FSH receptor (human, UniProt P23945 18-695)
T1 sequence (looked up): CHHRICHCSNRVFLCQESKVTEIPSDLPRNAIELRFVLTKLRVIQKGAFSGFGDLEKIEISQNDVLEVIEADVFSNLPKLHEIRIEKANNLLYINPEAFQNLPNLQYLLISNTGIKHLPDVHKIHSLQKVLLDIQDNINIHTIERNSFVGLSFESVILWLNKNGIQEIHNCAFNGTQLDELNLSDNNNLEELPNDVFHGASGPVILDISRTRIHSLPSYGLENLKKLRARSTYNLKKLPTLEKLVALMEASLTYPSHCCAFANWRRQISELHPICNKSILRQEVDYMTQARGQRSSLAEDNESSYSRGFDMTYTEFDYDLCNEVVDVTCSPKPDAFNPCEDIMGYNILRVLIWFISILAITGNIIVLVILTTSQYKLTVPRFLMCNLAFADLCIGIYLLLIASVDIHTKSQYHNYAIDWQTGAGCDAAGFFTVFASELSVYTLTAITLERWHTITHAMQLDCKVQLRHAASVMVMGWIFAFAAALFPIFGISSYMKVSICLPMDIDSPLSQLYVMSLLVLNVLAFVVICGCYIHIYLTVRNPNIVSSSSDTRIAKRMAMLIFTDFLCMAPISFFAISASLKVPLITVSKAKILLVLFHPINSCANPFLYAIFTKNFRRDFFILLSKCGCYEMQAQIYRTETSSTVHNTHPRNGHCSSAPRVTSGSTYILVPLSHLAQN

B1: wildtype human FSH (follicle stimulating hormone), recombinant, produced in CHO K1 cells (ligand)
chain 1: not shown
chain 2: CELTNITIAIEKEECRFCISINTTWCAGYCYTRDLVYKDPARPKIQKTCTFKELVYETVRVPGCAHHADSLYTYPVATQCHCGKCDSDSTDCTVRGLGPSYCSFGEMKE
B2: FSH1208, variant form of FSH containing two N-linked glycosylations at the N-terminus of the alpha subunit (ligand)
chain 1: not shown
chain 2: B1 chain 2
modifications: both asparagine residues of the N-terminal extension … are glycosylated

Molecular target: T1, human FSH receptor
Assay: cell-based or functional assay

Binder	luciferase signal of the CHO FSH-R/CRE-luc reporter clone, EC50 [IU/ml]	specific activity (in vitro bioactivity in the FSH luciferase assay per FSH content by ELISA), relative to wildtype FSH
B1	~0.01	–
B2	–	~0.33 fold of the wildtype reference
